B1: NTGA 6: Phl p wild type sequence, Table 2 (protein)
chain: MADEKLAKLREAVAGLPQISDNEKSGFISLVSRYLSGEEEHIEWPKIHTPTDEVVVPYDTVDAPPEDLEATKALLDKLAVLKLNGGLGTTMGCTGPKSVIEVRNGFTFLDLIVLQIESLNKKYGSNVPLLLMNSFNTHEDTLKIVEKYANSSIDIHTFNQSQYPRVVADEFLPWPSKGKTDKDGWYPPGHGDIFPSLMNSGKLDLLLSQGKEYVFIANSDNLGAIVDMKILNHLIHKQNEYCMEVTPKTLADVKGGTLISYEGRVQLLEIAQVPDAHVDEFKSIEKFKIFNTNNLWVNLKAIKRLVEADALKMEIIPNPKEVDGVKVLQLETAAGAAIRFFDHAIGINVPRSRFLPVKATSDLQLVQSDLYTLVDGFVTRNSARTDPSNPSIELGPEFKKVGSFLGRFKSIPSIVELDSLKVSGDVWFGSGIVLKGKVTITAKPGVKLEIPDGAVLENKDINGAEDL
modifications: Phleum Pratense
B2: ovalbumin (protein, UniProt P01012 2-386, looked up)
Ovalbumin: GSIGAASMEFCFDVFKELKVHHANENIFYCPIAIMSALAMVYLGAKDSTRTQINKVVRFDKLPGFGDSIEAQCGTSVNVHSSLRDILNQITKPNDVYSFSLASRLYAEERYPILPEYLQCVKELYRGGLEPINFQTAADQARELINSWVESQTNGIIRNVLQPSSVDSQTAMVLVNAIVFKGLWEKAFKDEDTQAMPFRVTEQESKPVQMMYQIGLFRVASMASEKMKILELPFASGTMSMLVLLPDEVSGLEQLESIINFEKLTEWTSSNVMEERKIKVYLPRMKMEEKYNLTSVLMAMGITDVFSSSANLSGISSAESLKISQAVHAAHAEINEAGREVVGSAEAGVDAASVSEEFRADHPFLFCIKHIATNAVLFFGRCVSP
notes: unrelated protein ovalbumin used as model allergen
B3: NTGA 19: Phl p wild type sequence, Table 2 (protein)
chain: GVVATTDAVEACTGVNVAVMVGGFPRKEGMERKDVMSKNVSIYKSQASALEAHAAPNCKVLVVANPANTNALILKEFAPSIPEKNISCLTRLDHNRALGQVSERLNVQVSDVKNVLIWGNHSSSQYPDVNHATVKTSSGEKPVRELVQDDEWLNGPFIATVQQRGAAIIKARKLSSALSAASSACDHIRDWVLGTPEGTFVSMGVYSDGSYGVPAGLIYSFPVTCSGGEWTIVQGLPIDEFSRKKMDATAQELSEEKALAYSCL
modifications: Phleum Pratense
B4: NTGA 73: Phl p wild type sequence, Table 2 (protein)
chain: MSSAKQVLEPAFQGAGQKPGTEIWRIENFNPVPLPKSDYGKFYCGDSYIVLQTTCNKGGAYLFDIHFWIGKDSSQDEAGTSAIKTVELDTMLGGRAVQHREPQGYESDKFLSYFKPCIIPLEGGFASGFKTPEEEKFETRLYICKGKRAIRVKEVPFARSSLNHDDVFILDTEKKIYQFNGANSNIQERAKALEVIQHLKDKYHEGVCDVAIVDDGKLQAESDSGEFWVVFGGFAPIGKKTVSDDDVILETSPTKLYSINNGKLKLEDIVLTKSILENTKCFLLDCGSELFVWVGRVTQVDDRKAASAAVEEFIVKQNRPKTTRVTQVIQGYENHTFKSLFESWPVSSTGNASTEEGRGKVAALLKKKGDVKGASKNSTPVNEEVPPLLEGSGKLEVWCVDGSAKTALPKEDLGKFHSGDCYIVLYTYHSGEKREEFYLTYWIGKDSVLEDQHMALQIATTIWNSMKGRPVLGRIYQGKEPPQFIALFQPMVILKGGISSGYKKSIEENGLKDETYSGTGIALVHIHGTSIHNNKTLQVDAVSISLSSTDCFVLQSGNSMFTWIGNTSSYEQQQWAAKVAEFLKPGASVKHCKEGTESSAFWSALGGKQNYTSKNATQDVLREPHLYTFSFRNGKLEVTEVFNFSQDDLLTEDVMILDTHAEVFVWMGQCVDTKEKQTAFETGQKYVEHAVNFEGLSPDVPLYKVSEGNEPCFFRTYFSWDNTRSVIHGNSFQKKLSLLFGMRSESGSKGSGDGGPTQRASALAALSSAFNPSSQDKQSNDRPKSSGDGGPTQRASALAALSSSLNPSSKPKSPHSQSRSGQGSQRAAAVAALSNVLTAEGSTLSPRNDAEKTELAPSEFHTDQDAPGDEVPSEGERTEPDVSQEETANENGGETTFSYDRLISKSTDPVRGIDYKRRETYLSDSEFETVFGVTKEEFYQQPRWKQELQKRKADLF
modifications: Phleum Pratense
B5: NTGA 3: Phl p wild type sequence, Table 2 (protein)
chain: MDDHKEHKEKEHTGGNPEVNEEEEEDEEAKRAVLLGPQVPLKEQLELDKDDESLRRWKEQLLGQVDTEQLGETAEPEVKVVDLTILSPDRPDLVLPIPFVADEKGYAFALKDGSTYSFRFSFIVSNNIVSGLKYTNTVWKTGVRVENQKMMLGTFSPQPEPYIYVGEEETTPAGIFARGSYSAKLKFVDDDGKVYLEMSYYFEIRKDWPTGQ
modifications: Phleum Pratense
B6: NTGA 87: Phl p wild type sequence, Table 2 (protein)
chain: MAVKVYVVYYSMYGHVGKLAEEIKKGASSVEGVEVKVWQVPEILSEEVLGKMGAPPKTDVPIISPQELAEADGILFGFPTRFGMMASQMKAFFDATGGLWREQSLAGKPAGVFFSTGTQGGGQETTPLTAVTQLTHHGMVFVPVGYTFGAKMFDMEKVQGGSPYGAGTFAGDGSRWPSEMELEHAFHQGKYFAGIAKKLKGS
modifications: Phleum Pratense
B7: NTGA 8: Phl p wild type sequence, Table 2 (protein)
chain: FEGCLAKSYKSEKSDKSATYDYSANIECEKEPPKPLYGGGILTGAEAPAPVSAGGKKLLMAKSKSAPAKGSTLKVELEKDTHYTLSAWLQLSKSTGDVKAILVTPDGNFNTAGMLVVQSGCWTMLKGGATSFAAGKGELFFETNVTAELMVDSMSLQPFSFEEWKSHRHESIAKERKKKVKITVHGSDGKVLPDAELSLERVAKGFPLGNAMTKEILDIPEYEKWFTSRFTVATMENEMKWYSTEYDQNQELYEIPDKMLALAEKYNISVRGHNVFWDDQSKQMDWVSKLSAPQLKKAMEKRMKNVVSRYAGKLIHWDVLNENLHYSFFEDKLGKDASAEVFKEVAKLDDKPILFMNEYNTIEEPNDAAPLPTKYLAKLKQIQSYPGNSKLKYGIGLESHFDTPNIPYVRGSLDTLAQAKVPIWLTEIDVKKGPKQVEYLEEVMREGFAHPGVKGIVLWGAWHAKECYVMCLTDKNFKNLPVGDVVDKLITEWKAVPEDAKTDDKGVFEAELFHGEYNVTVKHKS
modifications: Phleum Pratense
B8: NTGA 52: Phl p wild type sequence, Table 2 (protein)
chain: MDACRLLLLLLLGLLGLLAPLASAQLSREFYKASCPDAEKIVAAVIEKKLKEDPGTAAGLLRLLFHDCFANGCDASILIDPLSNQSAEKEAGPNISVRGFEVIDDIKKELEAKCPKTVSCADIVALGTRDAVRISGGPAYEVPTGRRDSLVSNREEADNNLPGPDIPIPKLTSEFLSRGFTPEEMVVLLAGGHSIGKVRCIFIEPDATPMDPGYQASISKLCDGPNRDTGFVNMDEHNPNVIDSSYFANVLAKKMPLTVDRLLGLDSKTTPIIKNMLNKPNDFMPTFAKAMEKLSVLKVITGKDG
modifications: Phleum Pratense

How the values were obtained:
splenocytes [1] = test: Prophylactic SLIT tolerance induction in mice, splenocyte proliferation; assay type: in vivo, BALB/c mice; details: prophylactic SLIT two weeks, FIG. 3A / 3C
Text: Then the tolerance induction of NTGA 86/51 was investigated in a prophylactic mice model using sublingual administration (FIG. 3)
The ability of NTGA 86/51 and NTGA 6 to induce prophylactic tolerance was investigated by SLIT treating naive BALB/c mice with NTGA 86/51 or NTGA 6 for two weeks (Monday-Friday) followed by one Phl p extract sensitization or sensitization to the immunogen itself (NTGA 86/51 or NTGA 6) as described above. Eleven days after the sensitization, splenocytes were harvested and stimulated in vitro with NTGA 86/51 as well as Phl p extract.

[2] = test system: cultured PBMCs of the allergic donors; test: ELISPOT of IL-5 or IFNg production by cultured PBMCs of TG allergic donors in response to peptide; assay type: cell-based, human; details: for No of PG+ & th+ peptides per NTGA / No of PP & Th+ peptides per NTGA: Table 6; for No of PG+ & th+ peptides per NTGA: PG+ peptides recognized by T cells of grass allergic donors (n=20); for No of PP & Th+ peptides per NTGA: PP peptides recognized by T cells of grass allergic donors (n=20); for # Th+: Table 7, peptides per NTGA recognized by T cells of grass allergic donors (n=20)
In short: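 Counts of responding donors among 20 TG-allergic subjects, judged by ELISPOT for IL-5 or IFNg (positive: minimum 20 SFCs/10^6 PBMCs, stimulation index 2 or more, P .05). Cells were pre-expanded with TG pollen extract or peptide pool, then stimulated at 1×10^5/well with 10 μg/mL peptide.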

splenocytes [3] = test: Bystander tolerance induction by prophylactic SLIT in mice, IP sensitization with NTGA 86/51 together with OVA; assay type: in vivo; details: FIG. 4
Text: Bystander tolerance induction by prophylactic SLIT treatment with A0086 (FIG. 4). The ability of NTGA 86/51 to induce bystander tolerance, i.e. to induce tolerance against a non-related protein was investigated by SLIT treating the mice for two weeks with NTGA 86/51 followed by an IP sensitization with NTGA 86/51 together with the unrelated protein ovalbumin (OVA). Following this splenocytes were stimulated in vitro either with NTGA 86/51to confirm the ability of this protein to induce tolerance towards itself, or with OVA to investigate if NTGA 86/51 can induce bystander tolerance towards an unrelated protein.

Molecule	No of PG+ & th+ peptides per NTGA [2]	No of PP & Th+ peptides per NTGA [2]	# Th+ [2]	other results
B1	22	14	9	tolerance towards the immunogen itself (proliferation of splenocytes vs buffer (sham) treated mice) (splenocytes [1]): capable of inducing tolerance towards itself; immune reactivity (SFC counts in ELISPOT) of highly conserved PG+ peptides derived from the NTGA [2]: high immune reactivity; NTGA's containing at least one T cell epitope, Th+ (Col 2) ([2]; NTGA number given = criterion met, TG allergic donors n=20): 6; T cell reactivity of sequences contained in the protein ([2]; among top pan-pollen NTGA's ranked by number of PP peptides): highly T cell reactive sequences; PG+ peptides recognized by grass allergic donors ([2]; n=20 grass allergic donors, PG+ peptides of the NTGA): two
B2	–	–	–	NTGA 86/51 specific in vitro proliferation of splenocytes vs buffer treated mice (splenocytes [3]): able to downregulate
B3	0	0	0	–
B4	0	0	0	–
B5	0	0	0	–
B6	0	0	0	–
B7	–	–	0	–
B8	–	–	1	–
